# Data reported in US20250011418A1 (ZIELBIO, published 2025).
# T1: Sec8-His (section 8 (Sec8), an antigenic region of CSP-1, tagged with a polyhistidine (His) tag)
# T1 construct: also called Sec8-His antigen
# T1 chain: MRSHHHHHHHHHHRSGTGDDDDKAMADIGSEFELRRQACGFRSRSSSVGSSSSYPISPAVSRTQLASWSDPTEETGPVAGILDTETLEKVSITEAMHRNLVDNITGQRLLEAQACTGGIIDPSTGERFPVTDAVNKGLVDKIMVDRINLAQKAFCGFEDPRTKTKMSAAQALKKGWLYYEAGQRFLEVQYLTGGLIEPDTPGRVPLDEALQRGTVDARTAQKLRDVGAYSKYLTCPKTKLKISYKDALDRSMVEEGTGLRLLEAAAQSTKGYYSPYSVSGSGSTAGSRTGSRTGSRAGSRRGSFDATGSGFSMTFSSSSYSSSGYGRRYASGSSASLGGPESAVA
# T2: Reb-His (Reb, a sub-fragment of Sec8, tagged with a polyhistidine (His) tag)
# T2 construct: also called Reb-His peptide
# T2 chain: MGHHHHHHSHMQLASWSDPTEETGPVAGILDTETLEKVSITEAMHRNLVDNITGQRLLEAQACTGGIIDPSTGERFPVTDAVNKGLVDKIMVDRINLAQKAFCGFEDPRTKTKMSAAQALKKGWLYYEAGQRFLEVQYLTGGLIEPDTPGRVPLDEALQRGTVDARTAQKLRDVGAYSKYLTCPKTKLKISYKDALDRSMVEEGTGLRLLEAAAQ
# B1: humanized anti-CSP-1 antibody, Antibody 51 (Ab51) (antibody, V domains shown)
# VH: EVQLVESGGGLVQPGGSLRLSCAASGFTFSRYGMSWVRQAPGKRLEWVATISIGGTYTYYPDSMKGRFTISRDNSKNTLYLQMNSLRAEDTAMYYCARRGYGQYSYYGLDYWGQGTLVTVSS
# VL: DIVMTQSALSNPVTLGQSASISCRSSKSLLHSQGITYLYWYLQKPGQSPQLLIYQMSNRASGVPDRFSSSGSGTDFTLKISRVEAEDVGVYYCAQNLELPLTFGQGTKLEIK
# notes: also called Antibody Number 51; huZB131
# Columns and labels:
# [1] = biological target: T1, Sec8-His (section 8 (Sec8), an …); experiment: ELISA on Sec8-His
# Procedure: (§1) The binding of humanized anti-CSP-1 antibody (Ab51) to an antigenic region of CSP-1 called section 8 (Sec8) was measured using ELISA.
# [2] = biological target: T1, Sec8-His (section 8 (Sec8), an …); experiment: ELISA, absorbance 650 nm against concentration in nM on a log axis
# Procedure: as §1
# [3] = biological target: T2, Reb-His (Reb, a sub-fragment of Sec8, …); experiment: ELISA on REB-HIS, absorbance 650 nm; no unit stands beside the number, the concentration axis is in nM
# Procedure: Furthermore, the binding of Ab51 to a sub-fragment of Sec8, called Reb, was measured using ELISA.
binder,measurement,setting,value
B1,Kd,[1],0.441 nM
same,EC50 (read off the curve),[2],~0.4 nM
same,EC50,[3],0.124 nM
